Results: PMC3753260, “High Yield Production of a Soluble Human Interleukin-3 Variant from E. coli with Wild-Type Bioactivity and Improved Radiolabeling Properties” (PLoS ONE, 2013)

How the values were obtained:
[1] = biological target: T1, human IL-3Rα subunit (human, UniProt P26951 19-378); assay: radioligand binding; ^125I-labelled hIL-3(13-125; W13Y) on COS cells transiently expressing IL-3 receptors; Scatchard analysis with EBDA-LIGAND software; details: one partner purified
T1 construct: human interleukin-3 receptor α subunit, transiently expressed on COS cells; also called hIL-3Rα; IL-3-specific α-subunit; source: COS cells, transfected by electroporation (pSG5: IL-3Rα), on cells
T1 sequence (P26951 19-378): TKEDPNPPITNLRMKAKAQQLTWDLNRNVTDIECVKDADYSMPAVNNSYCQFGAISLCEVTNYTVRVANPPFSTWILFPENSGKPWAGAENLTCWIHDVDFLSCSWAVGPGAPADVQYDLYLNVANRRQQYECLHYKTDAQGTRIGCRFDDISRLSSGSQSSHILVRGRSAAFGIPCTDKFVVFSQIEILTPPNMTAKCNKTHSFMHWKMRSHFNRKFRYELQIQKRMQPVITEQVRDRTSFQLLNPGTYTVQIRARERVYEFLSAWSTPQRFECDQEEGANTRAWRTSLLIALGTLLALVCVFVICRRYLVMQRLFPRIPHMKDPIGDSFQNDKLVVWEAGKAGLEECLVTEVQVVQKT

[2] = biological target: T2, hIL-3Rα and hβc subunits co-expressed (hIL-3 receptor) (human, UniProt P26951 19-378; P32927 17-897); assay: as above; details: one partner purified
T2 construct: human interleukin-3 receptor α subunit, transiently co-expressed with βc on COS cells; human common β-subunit (βc) shared with the IL-5 and GM-CSF receptors, transiently co-expressed with IL-3Rα on COS cells; The two subunits were co-expressed on the same cells; also called IL-3Rα and βc; hIL-3 receptors; source: COS cells, transfected by electroporation (pSG5: IL-3Rα and pSG5: βc), on cells
T2 sequence (P26951 19-378, chain 1 of 2): as the sequence (P26951 19-378) above
T2 sequence (P32927 17-897, chain 2 of 2): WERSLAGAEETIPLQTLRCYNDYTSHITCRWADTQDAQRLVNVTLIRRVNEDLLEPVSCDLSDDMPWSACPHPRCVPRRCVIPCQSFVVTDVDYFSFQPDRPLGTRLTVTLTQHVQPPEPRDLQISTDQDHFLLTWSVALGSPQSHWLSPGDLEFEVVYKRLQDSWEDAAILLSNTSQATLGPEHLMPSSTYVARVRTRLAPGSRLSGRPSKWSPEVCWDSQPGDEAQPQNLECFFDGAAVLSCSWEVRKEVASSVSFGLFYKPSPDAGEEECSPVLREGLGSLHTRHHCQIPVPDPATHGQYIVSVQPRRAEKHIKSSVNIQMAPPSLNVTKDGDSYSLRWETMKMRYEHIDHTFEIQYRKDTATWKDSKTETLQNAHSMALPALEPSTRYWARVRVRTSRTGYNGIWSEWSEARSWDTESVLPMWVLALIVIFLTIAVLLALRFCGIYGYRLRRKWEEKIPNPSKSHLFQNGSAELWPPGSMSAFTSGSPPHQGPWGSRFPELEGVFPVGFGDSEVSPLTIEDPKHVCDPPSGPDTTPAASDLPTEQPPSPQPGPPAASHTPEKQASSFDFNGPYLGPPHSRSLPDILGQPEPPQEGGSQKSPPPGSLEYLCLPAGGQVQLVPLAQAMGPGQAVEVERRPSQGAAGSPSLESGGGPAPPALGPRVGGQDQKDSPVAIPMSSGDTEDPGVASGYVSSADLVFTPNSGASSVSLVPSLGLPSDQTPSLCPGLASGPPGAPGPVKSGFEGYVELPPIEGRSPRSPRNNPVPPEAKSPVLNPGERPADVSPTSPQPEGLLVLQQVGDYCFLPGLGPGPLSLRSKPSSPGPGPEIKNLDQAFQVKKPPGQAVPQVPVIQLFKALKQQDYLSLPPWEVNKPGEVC

Kd [1]: 143 nM
Kd [2]: 0.456 nM
B1: ^125I-hIL-3(13-125; W13Y) (ligand, human)
chain: GAMGSYVNCSNMIDEIITHLKQPPLPLLDFNNLNGEDQDILMENNLRRPNLEAFNRAVKSLQNASAIESILKNLLPCLPLATAAPTRHPIHIKDGDWNEFRRKLTFYLKTLENAQAQQ
modifications: ^125I radio-iodinated (tyrosine labelling, Pierce Pre-Coated Iodination tubes / Iodogen)
notes: non-native N-terminal overhang left after TEV protease cleavage of the NusA-His6 tag (cloning artifact); human interleukin-3, four-helix bundle core, residues 13-125 with W13Y; numbers count on: the mature protein; Vector pETNusH HTb; also called hIL-3(W13Y); hIL-3 analog; source: E. coli BL21 CodonPlus (DE3)-RIPL, purified (Ni-NTA, TEV cleavage, SEC, in some cases RP-HPLC), then radio-iodinated; …
